Experimental data from article PMC11218354.

Legend:
nucleolin [1] = target: nucleolin (UniProt P19338); assay: SPR; details: SPR: 1x PBS, nucleolin on CM5 chip, analyte 0.156-10 uM, regeneration 50 mM NaOH, temperature not stated, ELONA: 1x PBS, 1 mM MgCl2, 0.05% Tween 20, 1 uM …
nucleolin [2] = target: nucleolin (UniProt P19338); assay: ELONA; details: 1 mM Mg2+; U6 = 5-fluorouridine (5FU replaces T6; printed F); ELONA: 1x PBS, 1 mM MgCl2, 0.05% Tween 20, 1 uM biotin

Sequence of nucleolin (P19338 2-710): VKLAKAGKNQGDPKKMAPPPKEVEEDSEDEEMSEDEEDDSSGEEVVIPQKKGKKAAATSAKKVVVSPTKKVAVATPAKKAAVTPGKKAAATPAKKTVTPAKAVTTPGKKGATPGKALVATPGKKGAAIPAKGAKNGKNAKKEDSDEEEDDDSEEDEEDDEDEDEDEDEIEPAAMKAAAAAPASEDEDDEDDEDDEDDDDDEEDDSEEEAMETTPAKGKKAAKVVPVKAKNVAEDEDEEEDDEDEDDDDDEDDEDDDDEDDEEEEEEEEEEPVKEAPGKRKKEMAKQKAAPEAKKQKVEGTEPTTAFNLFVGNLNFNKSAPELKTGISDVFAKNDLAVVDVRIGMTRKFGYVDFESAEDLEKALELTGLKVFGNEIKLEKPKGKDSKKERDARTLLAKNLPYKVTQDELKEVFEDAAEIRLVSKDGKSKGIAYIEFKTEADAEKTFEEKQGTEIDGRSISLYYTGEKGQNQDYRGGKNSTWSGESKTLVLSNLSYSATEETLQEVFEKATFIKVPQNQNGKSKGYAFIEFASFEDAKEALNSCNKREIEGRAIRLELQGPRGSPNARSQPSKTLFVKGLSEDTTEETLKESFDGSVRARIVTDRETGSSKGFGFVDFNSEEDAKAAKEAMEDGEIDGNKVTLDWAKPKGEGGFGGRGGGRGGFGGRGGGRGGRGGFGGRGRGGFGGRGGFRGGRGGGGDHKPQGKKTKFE

With “GGTGGTGGTGGTTGTGGTGGTGGTGG [ASP (AS1411-paclitaxel, thioether linker)]” the Kd (nucleolin [1]; 3'-amino DNA conjugated to paclitaxel through thioether linker) was 253 nM.

In the case of “GGTGGUGGTGGTTGTGGTGGTGGTGG [FA, biotinylated (sequence 2)]”, the binding signal (nucleolin [2]) is reported as > 100 % of AS1411.

GGTGGTGGTGGTTGTGGTGGTGGTGG [AS1411] was tested, and the Kd (nucleolin [1]) was 69.1 nM.

“GGTGGUGGTGGTTGTGGTGGTGGTGG [FASP (FA-paclitaxel, thioether linker)]” gave a Kd (nucleolin [1]; U6 = 5-fluorouridine (5FU replaces T6), 3'-amino DNA conjugated to paclitaxel through thioether linker) of 61.7 nM.

In the case of “GGTGGUGGTGGTTGTGGTGGTGGTGG [FA (sequence 2, 5FU at site 6 of AS1411)]”, the Kd (nucleolin [1]; U6 = 5-fluorouridine (5FU replaces T6; printed F)) is reported as 24.8 nM.
